The Human Domainome abundance scans (Beltran et al. 2025)
± gives the uncertainty stated by the source.

B1: POU domain, class 2, transcription factor 1, residues 285 to 354; numbered along this chain, P14859 (parent)
chain: LEELEQFAKTFKQRRIKLGFTQGDVGLAMGKLYGNDFSQTTISRFEALNLSFKNMCKLKPLLEKWLNDAE

Variants of: B1
Assay: abundance fitness (aPCA) (normalised: wild type 0, dead -1); higher = more abundant; growth selection in yeast, the domain comes from the species named
Details: Homo sapiens

Variant	abundance fitness
LEELEQFAKTFKQRRIKLGRTQGDVGLAMGKLYGNDFSQTTISRFEALNLSFKNMCKLKPLLEKWLNDAE	-0.092 ± 0.022
LEELEQFAKTFKQRRIKLGTTQGDVGLAMGKLYGNDFSQTTISRFEALNLSFKNMCKLKPLLEKWLNDAE	-0.253 ± 0.032
LEELEQFAKTFKQRRIKLGLTQGDVGLAMGKLYGNDFSQTTISRFEALNLSFKNMCKLKPLLEKWLNDAE	-0.081 ± 0.039
LEELEQFAKTFKQRRIKLGYTQGDVGLAMGKLYGNDFSQTTISRFEALNLSFKNMCKLKPLLEKWLNDAE	0.06 ± 0.062
LEELEQFAKTFKQRRIKLGPTQGDVGLAMGKLYGNDFSQTTISRFEALNLSFKNMCKLKPLLEKWLNDAE	-0.827 ± 0.045
LEELEQFAKTFKQRRIKLGWTQGDVGLAMGKLYGNDFSQTTISRFEALNLSFKNMCKLKPLLEKWLNDAE	0.004 ± 0.047
LEELEQFAKTFKQRRIKLGFTQCDVGLAMGKLYGNDFSQTTISRFEALNLSFKNMCKLKPLLEKWLNDAE	-0.073 ± 0.059
LEELEQFAKTFKQRRIKLGFTQEDVGLAMGKLYGNDFSQTTISRFEALNLSFKNMCKLKPLLEKWLNDAE	0.017 ± 0.088
LEELEQFAKTFKQRRIKLGFTQDDVGLAMGKLYGNDFSQTTISRFEALNLSFKNMCKLKPLLEKWLNDAE	0.023 ± 0.074
LEELEQFAKTFKQRRIKLGFTQSDVGLAMGKLYGNDFSQTTISRFEALNLSFKNMCKLKPLLEKWLNDAE	-0.021 ± 0.021
LEELEQFAKTFKQRRIKLGFTQWDVGLAMGKLYGNDFSQTTISRFEALNLSFKNMCKLKPLLEKWLNDAE	-0.069 ± 0.062
LEELEQFAKTFKQRRIKLGFTQHDVGLAMGKLYGNDFSQTTISRFEALNLSFKNMCKLKPLLEKWLNDAE	0.013 ± 0.028
LEELEQFAKTFKQRRIKLGFTQADVGLAMGKLYGNDFSQTTISRFEALNLSFKNMCKLKPLLEKWLNDAE	0.025 ± 0.042
LEELEQFAKTFKQRRIKLGFTQYDVGLAMGKLYGNDFSQTTISRFEALNLSFKNMCKLKPLLEKWLNDAE	-0.028 ± 0.037
LEELEQFAKTFKQRRIKLGFTQRDVGLAMGKLYGNDFSQTTISRFEALNLSFKNMCKLKPLLEKWLNDAE	-0.071 ± 0.047
LEELEQFAKTFKQRRIKLGFTQMDVGLAMGKLYGNDFSQTTISRFEALNLSFKNMCKLKPLLEKWLNDAE	-0.023 ± 0.043
LEELEQFAKTFKQRRIKLGFTQKDVGLAMGKLYGNDFSQTTISRFEALNLSFKNMCKLKPLLEKWLNDAE	0.065 ± 0.055
LEELEQFAKTFKQRRIKLGFTQPDVGLAMGKLYGNDFSQTTISRFEALNLSFKNMCKLKPLLEKWLNDAE	-0.11 ± 0.022
LEELEQFAKTFKQRRIKLGFTQTDVGLAMGKLYGNDFSQTTISRFEALNLSFKNMCKLKPLLEKWLNDAE	-0.004 ± 0.025
LEELEQFAKTFKQRRIKLGFTQQDVGLAMGKLYGNDFSQTTISRFEALNLSFKNMCKLKPLLEKWLNDAE	-0.023 ± 0.036

Variant	abundance fitness
LEELEQFAKTFKQRRIKLGFTQVDVGLAMGKLYGNDFSQTTISRFEALNLSFKNMCKLKPLLEKWLNDAE	0.113 ± 0.049
LEELEQFAKTFKQRRIKLGFTQNDVGLAMGKLYGNDFSQTTISRFEALNLSFKNMCKLKPLLEKWLNDAE	0.013 ± 0.046
LEELEQFAKTFKQRRIKLGFTQLDVGLAMGKLYGNDFSQTTISRFEALNLSFKNMCKLKPLLEKWLNDAE	-0.009 ± 0.02
LEELEQFAKTFKQRRIKLGFTQGTVGLAMGKLYGNDFSQTTISRFEALNLSFKNMCKLKPLLEKWLNDAE	-0.089 ± 0.027
LEELEQFAKTFKQRRIKLGFTQGKVGLAMGKLYGNDFSQTTISRFEALNLSFKNMCKLKPLLEKWLNDAE	-0.124 ± 0.035
LEELEQFAKTFKQRRIKLGFTQGMVGLAMGKLYGNDFSQTTISRFEALNLSFKNMCKLKPLLEKWLNDAE	-0.11 ± 0.036
LEELEQFAKTFKQRRIKLGFTQGPVGLAMGKLYGNDFSQTTISRFEALNLSFKNMCKLKPLLEKWLNDAE	-0.846 ± 0.033
LEELEQFAKTFKQRRIKLGFTQGWVGLAMGKLYGNDFSQTTISRFEALNLSFKNMCKLKPLLEKWLNDAE	-0.238 ± 0.035
LEELEQFAKTFKQRRIKLGFTQGVVGLAMGKLYGNDFSQTTISRFEALNLSFKNMCKLKPLLEKWLNDAE	-0.218 ± 0.027
LEELEQFAKTFKQRRIKLGFTQGAVGLAMGKLYGNDFSQTTISRFEALNLSFKNMCKLKPLLEKWLNDAE	-0.058 ± 0.024
LEELEQFAKTFKQRRIKLGFTQGEVGLAMGKLYGNDFSQTTISRFEALNLSFKNMCKLKPLLEKWLNDAE	-0.008 ± 0.053
LEELEQFAKTFKQRRIKLGFTQGRVGLAMGKLYGNDFSQTTISRFEALNLSFKNMCKLKPLLEKWLNDAE	-0.151 ± 0.026
LEELEQFAKTFKQRRIKLGFTQGSVGLAMGKLYGNDFSQTTISRFEALNLSFKNMCKLKPLLEKWLNDAE	-0.097 ± 0.023
LEELEQFAKTFKQRRIKLGFTQGHVGLAMGKLYGNDFSQTTISRFEALNLSFKNMCKLKPLLEKWLNDAE	-0.06 ± 0.037
LEELEQFAKTFKQRRIKLGFTQGLVGLAMGKLYGNDFSQTTISRFEALNLSFKNMCKLKPLLEKWLNDAE	-0.192 ± 0.02
LEELEQFAKTFKQRRIKLGFTQGGVGLAMGKLYGNDFSQTTISRFEALNLSFKNMCKLKPLLEKWLNDAE	-0.091 ± 0.041
LEELEQFAKTFKQRRIKLGFTQGYVGLAMGKLYGNDFSQTTISRFEALNLSFKNMCKLKPLLEKWLNDAE	-0.164 ± 0.045
LEELEQFAKTFKQRRIKLGFTQGDAGLAMGKLYGNDFSQTTISRFEALNLSFKNMCKLKPLLEKWLNDAE	-0.049 ± 0.064
LEELEQFAKTFKQRRIKLGFTQGDDGLAMGKLYGNDFSQTTISRFEALNLSFKNMCKLKPLLEKWLNDAE	-0.504 ± 0.25
